Laboratory results as given in publication doi:10.1101/2022.12.30.522206.
Like-named read-outs stand apart in the source and are kept apart here.

Assays:
Test in all cases: native gel or EMSA
[1] = target: PduA* (PduA with a C-terminal 23 residue extension) (Salmonella typhimurium LT2)
[2] = target: PduA*(A63R) (Salmonella typhimurium LT2)
[3] = target: PduA* (PduA with a C-terminal 23 residue extension) (Salmonella typhimurium LT2); remark: listed apart in the source

PduA* (PduA with a C-terminal 23 residue extension) (natural protein)
stoichiometry N [1]: 3 hexamers

PduA*(A63R) (natural protein)
stoichiometry N [2]: 3 hexamers

B1: PduL (enzyme)
chain: MDKQQLETTVTKVLDEMRERPIPLGISNRHIHLCAEDYDRLFPNHPISEKKELLQPGQYAADQTVTLVGPKGQLKNVRLLGPLRSTSQVEISRTDARTLGIAAPLRMSGSIEGTPGVRLISPFAELDLASGVIVAQRHIHMSPLDALILRVSHGDKVSVAINGDERRLIFDNVAVRVSPDMRLEMHIDTDEANAAGADNPQAFATLVSPR
stoichiometry N [3]: 1
stoichiometry N (PduL dimers per PduA trimer of hexamers) [3]: 3
